The target in test [1] is T1, ∆14-SUMO2 precursor C48S/G93C with dehydroalanine at position 93 (SUMO2-DHA) (human, UniProt P61956 15-95, C48S | G93C, dehydroalanine (DHA) at position 93 (made from Cys93 of G93C with 2,5-dibromohexanediamide)). Nature of the test: cell-based or functional assay.
The target in test [2] is T1, ∆14-SUMO2 precursor C48S/G93C with …. Description: cross-linking; active site probe assay: protease at 2 μM with SUMO2-DHA at 6 μM, 30 °C, 3 h; formation of the covalent thioether adduct; USPL1 wild type and mutants for 3 h. Conditions: both partners purified.

Results on one molecule are retold here after article PMC8983731, “Structural basis for the SUMO protease activity of the atypical ubiquitin-specific protease USPL1” (Nature Communications, 2022).

T1 sequence (P61956 15-95 C48S/G93C): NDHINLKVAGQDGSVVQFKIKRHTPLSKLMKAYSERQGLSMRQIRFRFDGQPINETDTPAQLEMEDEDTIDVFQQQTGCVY

B1: USPL1 catalytic domain Y451F (enzyme, human, UniProt Q5W0Q7 212-514, looked up)
chain: MPLESKCTSFPQALCVQWKNAYALCWLDCILSALVHSEELKNTVTGLCSKEESIFWRLLTKYNQANTLLYTSQLSGVKDGDCKKLTSEIFAEIETCLNEVRDEIFISLQPQLRCTLGDMESPVFAFPLLLKLETHIEKLFLYSFSWDFECSQCGHQYQNRHMKSLVTFTNVIPEWHPLNAAHFGPCNNCNSKSQIRKMVLEKVSPIFMLHFVEGLPQNDLQHYAFHFEGCLYQITSVIQFRANNHFITWILDADGSWLECDDLKGPCSERHKKFEVPASEIHIVIWERKISQVTDKEAACLPL
notes: USPL1, human, catalytic domain Met212-Leu514, point mutant; Made by site-directed mutagenesis of pET28a-USPL1CD; source: E. coli Rosetta (DE3), purified (Ni Sepharose, Resource Q anion exchange); not shown: His tag (from the vector pET28a)
For B1, the “proteolytic activity against SUMO2 substrates, fold decrease against wild type” value in test [1] came out at 4 fold. Besides, in test [2], the “fold decrease of binding against wild type” value is 4 fold.
